# Measured values taken from the supplement of paper PMC9732359.
# ± gives the uncertainty stated by the source.
# Assay: protein stability index of a GFP-peptide fusion (yeast GPS) (PSI 1-4); higher = more stable; sorted into four equal gates, so the index is relative within each strain
# Procedure, shortened: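 Each library plasmid carries Cherry plus GFP with a tiled 17-residue yeast protein peptide fused downstream, and the pooled library was carried in yeast. Mid-log cultures in leucine-free medium were sorted into four equal gates by GFP/Cherry ratio. Reads from Illumina sequencing of PCR-amplified plasmids from each gate were assigned to strains by barcodes. Per peptide, the protein stability index was computed as the summed products of gate read frequency and gate number.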
Sequence,protein stability index (doa10∆),protein stability index (pdr5∆),protein stability index (san1∆),protein stability index (ubr1∆)
VVDFLKRNGSTLEQKVN [FAS1],2.83 ± 0.057,3.03 ± 0.049,2.87 ± 0.048,3.07 ± 0.04
FSQEALQYVVERVGKRT [FAS1],1.07 ± 0.091,1.24 ± 0.11,–,1.17 ± 0.09
LDSNNNNSNSNNNDNNN [SWI1],2.65 ± 0.035,2.74 ± 0.039,2.79 ± 0.028,2.71 ± 0.029
LSRYVKWPEYVRVQRQK [RPL8A],–,2.67 ± 0.13,–,3.02 ± 0.22
GEICKNYELEKIADNIS [YDL116W/NUP84],3.13 ± 0.098,3.12 ± 0.084,2.96 ± 0.061,3.09 ± 0.061
ELEMIGGTNEDDFTDAI [YCS4],–,3.2 ± 0.18,3.39 ± 0.069,3.7 ± 0.19
LTEAVEDGPRPFKVFLD [RPL5],3.03 ± 0.071,3.11 ± 0.061,3.02 ± 0.052,3.23 ± 0.036
SINISCVQLIKCLVEKS [SWI1],1.78 ± 0.067,2.41 ± 0.055,2.27 ± 0.1,1.81 ± 0.045
KASRKSVGLPSKVASSL [ECM29],2.81 ± 0.055,2.79 ± 0.066,2.69 ± 0.056,2.84 ± 0.052
NKLTGKQIVFEIPSQTN [RPS7B],2.79 ± 0.081,3.06 ± 0.13,2.88 ± 0.095,2.66 ± 0.086
VSNKFEKIFHYGHVFLG [PUP3],2.94 ± 0.28,–,–,–
NANQQFLPFNNSASNNG [SWI1],3 ± 0.052,2.97 ± 0.052,2.96 ± 0.042,3.02 ± 0.06
SYVNYRHMALLVDVMTT [RPO21],1.23 ± 0.049,1.25 ± 0.049,1.2 ± 0.062,1.18 ± 0.034
RELARIKKYASVVRVLV [RPL3],1.32 ± 0.09,1.17 ± 0.12,1.13 ± 0.18,1.2 ± 0.11
DEIKAQRKEIKDRISSC [SMC4],3 ± 0.062,3.03 ± 0.054,3.13 ± 0.061,3.07 ± 0.053
NTSAIQETASPLSQDEL [YIL149C/MLP2],1.23 ± 0.09,1.39 ± 0.091,1.19 ± 0.17,1.25 ± 0.077
RSTDVWYEASTWIQQFK [ARP7],–,3.64 ± 0.13,2.45 ± 0.28,2.97 ± 0.13
YGVSFFTIQSFVSSLSN [BRR2],1.47 ± 0.052,1.32 ± 0.058,1.18 ± 0.087,1.42 ± 0.054
PLNVLQDQYKEGIKVVD [SNF2],–,2.46 ± 0.11,1.78 ± 0.092,2.62 ± 0.093
GVATKDKFFTLSAENIE [SCL1],–,–,–,3.28 ± 0.25
LWDSKELEQLVEFNRKV [RPN3],2.97 ± 0.1,2.62 ± 0.093,3.2 ± 0.068,2.81 ± 0.084
VPVIESAGFETDLRLST [SNU114],3.14 ± 0.21,3.12 ± 0.23,–,3.17 ± 0.14
TRIAGVVYHPSNNELVR [RPS8A],2.666 ± 0.019,2.47 ± 0.018,2.56 ± 0.02,2.652 ± 0.013
ILDINVSSSKNKKSEEN [SWP82],3.36 ± 0.15,3.21 ± 0.083,3.27 ± 0.08,3.27 ± 0.079
EIIADWIWDMNVHGSLE [BRR2],1.89 ± 0.1,2.43 ± 0.095,2.88 ± 0.085,2.18 ± 0.054
VLYYRDARSSRNFSLAI [PRE4],2.85 ± 0.14,2.63 ± 0.12,1.99 ± 0.15,2.39 ± 0.085
SPQKFETNLQTFLPPLL [ECM29],3.01 ± 0.071,2.95 ± 0.06,3.2 ± 0.04,2.92 ± 0.049

Sequence,protein stability index (doa10∆),protein stability index (pdr5∆),protein stability index (san1∆),protein stability index (ubr1∆)
NAIFQMESEEVPLTKRY [PCI8],2.81 ± 0.05,2.82 ± 0.045,2.85 ± 0.038,3.08 ± 0.044
EDQKVVDKALIAEIKKT [RPL6A],3.37 ± 0.13,3.48 ± 0.084,3.19 ± 0.11,3.61 ± 0.072
VHESLVTQSNILSQQFD [SRB8],2.71 ± 0.07,3.09 ± 0.071,2.78 ± 0.054,3.02 ± 0.052
NSTNSNTTKPAFGGLNF [YJL041W/NSP1],3.29 ± 0.082,3.29 ± 0.09,3.14 ± 0.059,3.47 ± 0.076
VLGTPDQKIWPYLEKYP [SSN3],2.42 ± 0.077,1.72 ± 0.053,2.3 ± 0.068,2.13 ± 0.059
NIGETAGVVQDIGSDPT [RPB9],2.77 ± 0.089,3.25 ± 0.085,2.72 ± 0.11,2.92 ± 0.056
HPWEQAKEVKVLYHTSG [PRP8],2.81 ± 0.23,2.78 ± 0.14,3.03 ± 0.085,2.9 ± 0.091
IAGHDEFNGFSLYQVDP [PRE8],3.15 ± 0.09,3.31 ± 0.15,3.21 ± 0.11,2.94 ± 0.095
KTVAVDSVFEQNEMIDA [RPL3],2.57 ± 0.095,2.75 ± 0.12,2.31 ± 0.11,2.51 ± 0.042
QHIYPSSTPGVANYSAM [GAL11],2.85 ± 0.11,2.7 ± 0.12,3.01 ± 0.11,2.81 ± 0.14
IRGNLMGKRVDFSARTV [RPO21],–,2.76 ± 0.24,–,2.5 ± 0.26
FIRVIGSELVQKYVGEG [RPT1],2.59 ± 0.21,2.57 ± 0.076,3 ± 0.083,2.84 ± 0.05
KRIKGLEFSALSAADIV [RPO31],3.09 ± 0.09,3.15 ± 0.076,3.15 ± 0.061,3.24 ± 0.067
AKGKSGVQTAYIDYSSK [RRP40],2.54 ± 0.24,–,–,2.91 ± 0.24
KIVDKDGIRQVDDFQAQ [PRE1],2.9 ± 0.14,2.9 ± 0.11,–,–
DRHIGCVYSGLIPDGRH [PRE10],3.18 ± 0.098,3.41 ± 0.088,3.1 ± 0.062,3.54 ± 0.12
RIHAKNFEAALFAKSSS [GAL11],2.67 ± 0.086,2.54 ± 0.072,2.74 ± 0.099,2.56 ± 0.047
HEVVQDDSFSLLRIQML [PCI8],2.7 ± 0.049,2.96 ± 0.063,2.74 ± 0.047,2.84 ± 0.036
TQTYMQMIELNRQICLV [GRR1],2.35 ± 0.13,1.44 ± 0.073,1.35 ± 0.19,1.25 ± 0.047
PGTITHGMFSSASVRAL [FAS1],2.53 ± 0.063,2.54 ± 0.064,2.53 ± 0.053,2.52 ± 0.037
ELVDMAGAGEANGTVVS [MTR3],2.98 ± 0.12,3.11 ± 0.14,–,3.05 ± 0.087
NASGNKRSGVIETVDDK [ITC1],2.55 ± 0.09,2.58 ± 0.097,2.27 ± 0.12,2.45 ± 0.052
ESKLRDDLERLKKIRAH [RPS18A],2.78 ± 0.13,1.98 ± 0.087,1.5 ± 0.16,3.3 ± 0.048
DIFVYLTYDKDLTNNPQ [MTR3],2.1 ± 0.05,1.98 ± 0.073,2.35 ± 0.1,2.28 ± 0.065
PDMYERKVENIRTILVN [MED7],1.32 ± 0.045,1.65 ± 0.045,1.46 ± 0.096,1.36 ± 0.036
ARQQVAQQLRNQQQQQQ [GAL11],2.73 ± 0.064,3.2 ± 0.13,2.85 ± 0.097,2.92 ± 0.076
